The supplement of paper PMC10126150
± gives the standard deviation of the averaged measurements.

Tested on: ATP
Assay: switch fluorescence ratio, 500 uM ATP over buffer (Cy3 cluster intensity, sum of 5 cycles each) (fold (ratio)); higher = stronger signal-on switching upon ATP binding; sequences stand for … in TCGTCGGCAGCGTCAGATGTGTATAAGAGACAGTTTTTTTTTTTTTTTTTTTTTTTTT…TC
Details: aptamer strand: ATP DNA aptamer (quencher-CACCTGGGGGAGTATTGCGGAGGAAGG + anchor), 100 nM annealed; ATP concentration: 500 uM
How it was run: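 Between each of five buffer/ATP cycles, the flow-cell was stripped with NaOH and re-annealed. Each cycle imaged Cy3-labelled switching-strand clusters, annealed to 100 nM quencher-labelled ATP aptamer on a modified Illumina MiSeq flow-cell, first in selection buffer and then after 15 min with 500 uM ATP at 22 °C. The fluorescence ratio is summed target-cycle over summed buffer-cycle Cy3 intensity per cluster, averaged per switch-domain sequence, with clusters outside 100-1000 RFU excluded.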
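Note: ATP exposure 15 min at 22 °C before imaging.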

Sequence	switch fluorescence ratio
AGGATGCATT	1.8 ± 1.1
AGGATGGACG	1.02 ± 0.064
AGGATGGGGG	0.997 ± 0.045
AGGATGGTTC	0.9541 ± 0.0016
AGGATTCGGG	1.01 ± 0.021
AGGCAAACCC	1.0669 ± 0.00051
AGGCAACCAC	1.23 ± 0.033
AGGCAGGGGA	1.03 ± 0.025
AGGCCAGGGT	1.04 ± 0.021
AGGCCATTGG	1.04 ± 0.024
AGGCCCTGTT	0.989 ± 0.028
AGGCCGGGGT	1.01 ± 0.055
AGGCGACTAT	1 ± 0.011
AGGCGAGGGA	1.02 ± 0.0049
AGGCGAGTTA	0.9937 ± 0.0054
AGGCGATTTA	0.976 ± 0.022
AGGCGCAGTG	1.04 ± 0.054
AGGCGCCGCA	1.01 ± 0.018
AGGCGCGGGT	0.998 ± 0.069
AGGCGGGCGA	1.02 ± 0.05
AGGCGGGCGT	0.9623 ± 0.0022
AGGCGGGTGA	1.02 ± 0.013
AGGCGGTATC	1.047 ± 0.0025
AGGCGGTTTG	0.985 ± 0.034
AGGCGTAAAT	0.997 ± 0.029

Sequence	switch fluorescence ratio
AGGCGTAGCT	1.01 ± 0.044
AGGCTAAGAT	1.0077 ± 0.001
AGGCTAGCGG	1.01 ± 0.019
AGGCTAGTGG	0.993 ± 0.035
AGGCTGAGCT	0.979 ± 0.051
AGGCTGCAGT	1.013 ± 0.007
AGGCTGGAGG	1.01 ± 0.038
AGGCTTGGGC	0.971 ± 0.012
AGGGAAATGA	0.987 ± 0.024
AGGGAAGGTT	0.982 ± 0.022
AGGGAATAAA	1 ± 0.031
AGGGAATAGC	1.01 ± 0.011
AGGGAATCGT	0.9953 ± 0.0013
AGGGAATGTT	0.972 ± 0.033
AGGGAATTGT	1 ± 0.037
AGGGACCTTA	1.04 ± 0.05
AGGGACTAGG	0.994 ± 0.011
AGGGAGCGCG	0.995 ± 0.011
AGGGAGGCGG	0.974 ± 0.032
AGGGAGGGGA	1.03 ± 0.061
AGGGAGGTGC	1.02 ± 0.051
AGGGAGGTTA	0.972 ± 0.06
AGGGAGTACA	1.01 ± 0.013
AGGGAGTTGC	1.03 ± 0.038
AGGGATACCG	1.01 ± 0.066

Sequence	switch fluorescence ratio
AGGGATCGTC	0.987 ± 0.014
AGGGATGGGT	0.976 ± 0.0026
AGGGATTAA	0.99 ± 0.054
AGGGATTCAT	1.02 ± 0.032
AGGGATTGAA	0.9875 ± 0.0022
AGGGCAAGCG	0.938 ± 0.041
AGGGCAGGGT	0.975 ± 0.018
AGGGCCAAGT	0.997 ± 0.011
AGGGCGGGTA	1.01 ± 0.014
AGGGCTCCTG	1.0172 ± 0.00034
AGGGCTGTTA	0.998 ± 0.033
AGGGCTTTCT	0.97 ± 0.023
AGGGCTTTGT	1 ± 0.014
AGGGGAAAGC	1.01 ± 0.027
AGGGGAAAGG	0.984 ± 0.014
AGGGGAAGCC	1.02 ± 0.066
AGGGGAAGTG	0.955 ± 0.07
AGGGGACTTT	0.978 ± 0.013
AGGGGAGAAC	0.9758 ± 0.0086
AGGGGAGGTG	1.09 ± 0.05
AGGGGAGTAT	1.45 ± 0.66
AGGGGAGTGT	0.988 ± 0.029
AGGGGATCGC	0.996 ± 0.034
AGGGGATTGG	0.991 ± 0.015
AGGGGCACGG	1.02 ± 0.0093

Sequence	switch fluorescence ratio
AGGGGCGGCG	1.01 ± 0.061
AGGGGCGGGC	0.884 ± 0.13
AGGGGCGGGG	0.995 ± 0.029
AGGGGCGTAG	1 ± 0.025
AGGGGGAATG	1 ± 0.044
AGGGGGACTG	0.9635 ± 0.0022
AGGGGGAGAG	0.969 ± 0.013
AGGGGGAGCA	0.9697 ± 0.0045
AGGGGGATCA	1.011 ± 0.0061
AGGGGGATCG	0.9794 ± 0.0018
AGGGGGCAAA	1.02 ± 0.045
AGGGGGCAGA	1.03 ± 0.05
AGGGGGCAGC	1.01 ± 0.015
AGGGGGCCCG	1.009 ± 0.005
AGGGGGCGCG	1.01 ± 0.048
AGGGGGCTGT	0.994 ± 0.03
AGGGGGGACT	0.993 ± 0.011
AGGGGGGAGG	0.997 ± 0.026
AGGGGGGCGA	1.01 ± 0.029
AGGGGGGCGT	1.01 ± 0.016
AGGGGGGCTG	0.975 ± 0.045
AGGGGGGGG	1.03 ± 0.085
AGGGGGGTCA	0.976 ± 0.032
AGGGGGGTTG	1 ± 0.032
AGGGGGTAGA	1.05 ± 0.027
